Target: Insulin-like Growth Factor I Receptor (IGF-1R) (UniProt P08069)
Experiment: competitive displacement of 125I-IGF-I from IGF-1R, FIG. 9B

Sequence of Insulin-like Growth Factor I Receptor (IGF-1R) (P08069 31-1367 limits assumed): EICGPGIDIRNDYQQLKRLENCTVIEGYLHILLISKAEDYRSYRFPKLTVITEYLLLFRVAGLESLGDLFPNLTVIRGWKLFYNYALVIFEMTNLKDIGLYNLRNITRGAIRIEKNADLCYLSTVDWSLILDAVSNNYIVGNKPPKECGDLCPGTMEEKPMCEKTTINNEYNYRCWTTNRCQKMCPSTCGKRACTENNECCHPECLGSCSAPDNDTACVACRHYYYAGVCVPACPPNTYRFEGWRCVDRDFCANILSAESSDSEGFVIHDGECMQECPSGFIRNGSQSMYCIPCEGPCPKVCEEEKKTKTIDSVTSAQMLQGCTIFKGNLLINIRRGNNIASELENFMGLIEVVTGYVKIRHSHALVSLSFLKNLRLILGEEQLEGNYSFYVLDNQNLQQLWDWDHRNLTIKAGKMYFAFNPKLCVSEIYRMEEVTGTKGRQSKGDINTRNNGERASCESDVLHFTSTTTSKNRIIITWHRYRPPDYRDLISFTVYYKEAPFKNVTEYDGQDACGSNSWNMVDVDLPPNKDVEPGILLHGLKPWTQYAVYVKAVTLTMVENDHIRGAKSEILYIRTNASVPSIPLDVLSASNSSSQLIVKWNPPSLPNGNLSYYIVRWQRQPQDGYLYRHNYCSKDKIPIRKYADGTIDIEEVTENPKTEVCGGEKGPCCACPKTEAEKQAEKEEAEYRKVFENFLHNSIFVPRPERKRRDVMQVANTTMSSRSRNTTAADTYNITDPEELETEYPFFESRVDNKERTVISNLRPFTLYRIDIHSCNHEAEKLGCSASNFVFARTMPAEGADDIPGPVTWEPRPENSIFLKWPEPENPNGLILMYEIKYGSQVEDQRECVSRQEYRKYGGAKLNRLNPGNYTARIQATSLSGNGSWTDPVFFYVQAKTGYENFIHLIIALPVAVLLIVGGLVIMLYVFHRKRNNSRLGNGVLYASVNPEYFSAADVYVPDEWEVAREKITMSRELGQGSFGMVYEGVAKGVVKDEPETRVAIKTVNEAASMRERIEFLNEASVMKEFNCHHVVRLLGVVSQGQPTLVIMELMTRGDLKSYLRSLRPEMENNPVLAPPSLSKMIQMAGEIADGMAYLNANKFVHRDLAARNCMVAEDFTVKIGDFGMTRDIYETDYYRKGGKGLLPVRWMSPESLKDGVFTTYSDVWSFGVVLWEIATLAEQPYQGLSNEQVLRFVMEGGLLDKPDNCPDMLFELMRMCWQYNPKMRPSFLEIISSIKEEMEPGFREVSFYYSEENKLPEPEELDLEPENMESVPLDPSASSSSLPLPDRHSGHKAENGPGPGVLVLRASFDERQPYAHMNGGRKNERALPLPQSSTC

fold reduction of cross-binding relative to KP-insulin or wild-type insulin: 3 fold
Substance: 4Cl-Phe^B24-KP-insulin (ligand; para-monochloro-phenylalanine (4Cl-Phe) at B24; other documents disagree on this pair)
